Source: patent US20180066067A1 (Novartis, published 2018)

B1: RSPO1-GFP (ligand, UniProt Q2MKA7 21-263, looked up)
chain: SRGIKGKRQRRISAEGSQACAKGCELCSEVNGCLKCSPKLFILLERNDIRQVGVCLPSCPPGYFDARNPDMNKCIKCKIEHCEACFSHNFCTKCKEGLYLHKGRCYPACPEGSSAANGTMECSSPAQCEMSEWSPWGPCSKKQQLCGFRRGSEERTRRVLHAPVGDHAACSDTKETRRCTVRRVPCPEGQKRRKGGQGRRENANRNLARKESKEAGAGSRRRKGQQQQQQQGTVGPLTSAGPA
notes: Used as conditioned medium; The order of the parts follows the printed name; also called R-spondin 1 GFP fusion; R-spondin; not shown: GFP
B2: ZNRF3 P103A ECD-TM (receptor, not shown: small tags and cut ends)
chain: KETAFVEVVLFESSPSGDYTTYTTGLTGRFSRAGATLSAEGEIVQMHALGLCNNNDEEDLYEYGWVGVVKLEQPELDPKPCLTVLGKAKRAVQRGATAVIFDVSENPEAIDQLNQGSEDPLKRPVVYVKGADAIKLMNIVNKQKVARARIQHRPPRQPTEYFDMGIFLAFFVVVSLVCLILLVKIKLKQRRSQNSMNRLAV
notes: On transiently transfected HEK293 cells, N-terminally Myc-tagged
B3: Fab clone Ab2 (Fab, V domains shown)
VH: EVQLVESGGGLVKPGGSLRLSCAASGFTFSDYGIHWVRQAPGKGLEWVGRIKSKTDGGITEYAAPVKGRFTISRDDSKNTLYLQMNSLKTEDTAVYYCARAIYYLEAFDVWGQGTLVTVSS
VL: DIELTQPPSVSVSPGQTASITCSGDSLGSYYVHWYQQKPGQAPVLVIYRNKQRPSGIPERFSGSNSGNTATLTISGTQAEDEADYYCQTYDWMYSSRVFGGGTKLTVLG
notes: also called parental Ab2; ZNRF3 hFab
B4: Fab clone Ab1 (Fab, V domains shown)
VH: QVQLVQSGAEVKKPGASVKVSCKASGYTFTSYHMHWVRQAPGQGLEWMGWINPYTGDTNYAQKFQGRVTMTRDTSISTAYMELSRLRSEDTAVYYCAREKVYMDIWGQGTLVTVSS
VL: DIELTQPPSVSVSPGQTASITCSGDSIPSKYAHWYQQKPGQAPVLVIYGKSHRPSGIPERFSGSNSGNTATLTISGTQAEDEADYYCAAWDLLGDGWVFGGGTKLTVLG
notes: Fab from phage display panning on Fc-ZNRF3 ECD; Light chain Lch-lambda3, heavy chain Hch-VH1B; the heavy chain entry carries C-terminal tags; also called ZNRF3 hFab

Tests used:
[1] = molecular target: T1, N-terminal Myc-tagged FZD4 (Frizzled 4) (UniProt Q9ULV1 37-537, limits assumed); assay: cell-based binding assay: RSPO1-GFP conditioned medium for 1 hour on transfected HEK293 cells, immunofluorescence
T1 construct: whole, on cells; On transiently transfected HEK293 cells; not shown: N-terminal Myc tag
T1 sequence (looked up): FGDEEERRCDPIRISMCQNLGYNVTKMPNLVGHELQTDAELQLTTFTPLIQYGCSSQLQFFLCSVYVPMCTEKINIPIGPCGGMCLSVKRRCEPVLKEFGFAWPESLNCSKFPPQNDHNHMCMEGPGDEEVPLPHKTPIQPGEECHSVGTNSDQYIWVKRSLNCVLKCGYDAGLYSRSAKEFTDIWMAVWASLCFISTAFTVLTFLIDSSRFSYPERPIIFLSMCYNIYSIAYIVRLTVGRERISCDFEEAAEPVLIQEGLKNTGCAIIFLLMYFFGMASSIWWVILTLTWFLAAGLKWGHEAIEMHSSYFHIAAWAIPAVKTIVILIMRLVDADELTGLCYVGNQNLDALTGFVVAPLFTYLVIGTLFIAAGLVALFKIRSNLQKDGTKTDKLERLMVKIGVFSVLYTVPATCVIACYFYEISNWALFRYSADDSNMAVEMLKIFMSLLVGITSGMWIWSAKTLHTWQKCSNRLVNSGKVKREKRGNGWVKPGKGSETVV
Method: (§1) Since ZNRF3 regulates the membrane level of Frizzled proteins, we tested whether R-spondin enhances Wnt signaling through inhibiting ZNRF3. […] To do so, the inventors transiently transfected HEK293 cells with N-terminal Myc-tagged FZD4 (Frizzled 4), or ZNRF3 ECD-TM, or ZNRF3 P103A ECD-TM, then incubated these cells with RSPO1-GFP conditioned medium for 1 hour. We determined the binding of RSPO1-GFP to Myc tagged proteins expressed on the cell surface using immunoflurorescence using anti-GFP and anti-Myc antibodies.

RSPO1-GFP = molecular target: B1; assay: as above
Method: as §1

[2] = molecular target: T2, Fc-ZNRF3 ECD (extracellular domain, amino acids 56-219 of SEQ ID NO: 1) (human, UniProt Q9ULT6 56-219); assay: ELISA on Fc-ZNRF3 ECD
T2 construct: The order of the parts follows the printed name 'Fc-ZNRF3 ECD'; also called purified ZNRF3 extracellular domain; not shown: Fc part
T2 sequence: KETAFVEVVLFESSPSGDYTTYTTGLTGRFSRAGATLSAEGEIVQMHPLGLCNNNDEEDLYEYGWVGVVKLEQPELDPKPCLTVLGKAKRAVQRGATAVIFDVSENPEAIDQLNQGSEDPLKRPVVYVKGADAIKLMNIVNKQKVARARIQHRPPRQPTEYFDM

[3] = molecular target: T3, ZNRF3 ΔRING (missing amino acids 293-334), stably expressed on HEK293 cells (human, UniProt Q9ULT6 56-936); assay: FACS on HEK293 cells stably expressing ZNRF3 ΔRING
T3 construct: No tag is stated for the cell line used in FACS; also called ZNRF3 lacking the RING domain
T3 sequence: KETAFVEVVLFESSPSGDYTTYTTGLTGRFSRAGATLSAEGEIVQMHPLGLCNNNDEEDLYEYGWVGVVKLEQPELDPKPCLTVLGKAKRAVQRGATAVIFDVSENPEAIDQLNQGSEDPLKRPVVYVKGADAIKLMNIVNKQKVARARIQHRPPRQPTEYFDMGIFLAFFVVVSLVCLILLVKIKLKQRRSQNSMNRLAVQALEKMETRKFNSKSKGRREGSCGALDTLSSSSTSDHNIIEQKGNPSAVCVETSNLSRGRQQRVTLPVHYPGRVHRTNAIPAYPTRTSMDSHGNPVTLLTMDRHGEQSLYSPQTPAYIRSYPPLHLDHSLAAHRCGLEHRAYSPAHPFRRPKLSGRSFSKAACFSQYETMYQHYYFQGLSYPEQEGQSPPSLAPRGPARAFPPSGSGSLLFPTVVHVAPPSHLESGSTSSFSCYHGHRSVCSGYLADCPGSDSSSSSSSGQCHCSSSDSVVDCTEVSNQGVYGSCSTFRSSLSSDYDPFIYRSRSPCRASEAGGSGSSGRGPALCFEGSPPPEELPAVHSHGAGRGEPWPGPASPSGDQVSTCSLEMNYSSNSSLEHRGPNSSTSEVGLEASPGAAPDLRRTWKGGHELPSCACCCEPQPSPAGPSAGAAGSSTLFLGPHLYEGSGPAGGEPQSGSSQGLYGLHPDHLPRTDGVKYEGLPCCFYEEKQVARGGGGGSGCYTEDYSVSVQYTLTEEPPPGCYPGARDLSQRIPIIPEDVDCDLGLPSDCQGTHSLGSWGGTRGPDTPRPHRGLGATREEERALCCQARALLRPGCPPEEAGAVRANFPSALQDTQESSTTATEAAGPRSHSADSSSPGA

Binder	binding result [1]	binding result (RSPO1-GFP)	binding result [2]	binding result [3]
B1	no binding	–	–	–
B2	–	no binding	–	–
B3	–	–	binds	binds
B4	–	–	binds	binds
